Laboratory results as given in the supplement of paper PMC12042874.
± gives the uncertainty stated by the source.

Assay: amyloid nucleation score (Sup35N fusion, yeast selection) (log enrichment); library NNK2; higher = more nucleation; inactive = no reads after selection
Method in brief: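 Psi-negative yeast expressed Sup35N fused to peptides of 20 random codons. They were induced 24 hours with 100 μM copper sulfate, grown 7 days at 30°C without adenine and uracil, and their plasmid inserts from input and output were Illumina-sequenced. The nucleation score is the DiMSum log enrichment of output over input reads, centred on the mode score of non-aggregating sequences. Sequences with under 100 input reads were excluded.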
With IDLSTMTAGTCISYCVYCRI the amyloid nucleation score was 5.25 ± 0.1.
Work on VAVVFTKYSSRTYLGVGSVG yielded an amyloid nucleation score of 4.21 ± 0.07.
Substance YMSGILASIRKSILQGRSRE has an amyloid nucleation score of -1.41 ± 0.49.
For LSYRRFFRLILKGAVG, the amyloid nucleation score was “inactive”.
With KFLIWRNFLYSVIMAVAW the amyloid nucleation score was “inactive”.
With CNYMSVWN the amyloid nucleation score was -0.021 ± 0.74.
With QSTYCQRRCVC the amyloid nucleation score was 0.042 ± 0.63.
Substance EACRLYHRVVKAFGEARCSV has an amyloid nucleation score of 0.518 ± 0.28.
Substance FNLYYSRGLSSCLSYSRLEV has an amyloid nucleation score of -0.532 ± 1.
Substance KMTRLLFYWSFGCGLIHLVC has an amyloid nucleation score of -0.464 ± 1.1.
SMATTE gave an amyloid nucleation score of 8.377 ± 0.063.
In the case of VSRFYCKYYSAQWIRYGRAC, the amyloid nucleation score is reported as -0.544 ± 0.36.
Work on YFSYVMSVAATAMLGLVVVR yielded an amyloid nucleation score of 0.189 ± 0.3.
RNRSGVMW gave an amyloid nucleation score of 0.276 ± 1.
With LPKREPGDKGTLLYYDQELS the amyloid nucleation score was 0.167 ± 0.53.
For TWVLSWSIPNCARGFLSWWI, the amyloid nucleation score was 0.672 ± 0.18.
Work on KFSASKSDISLSSYVVIMFM yielded an amyloid nucleation score of 6.186 ± 0.036.
Work on LQDYCACNGVSCCIVYCKSF yielded an amyloid nucleation score of 8.693 ± 0.053.
For LSPYYSLCVSGSTWSAVQPL, the amyloid nucleation score was 0.476 ± 0.51.
For YAMCPCVYNLDSQGAC, the amyloid nucleation score was 3.85 ± 0.12.
With CSCMKFWKFLLIRQSYKPGM the amyloid nucleation score was 2.16 ± 0.18.
In the case of NLPIGLCSAGRFLGNNL, the amyloid nucleation score is reported as 0.123 ± 1.
In the case of RSCSWLLIYRIVILVG, the amyloid nucleation score is reported as “inactive”.
In the case of DGFSFIVRSFVWRNNHADAG, the amyloid nucleation score is reported as 3.71 ± 0.12.
Substance FLSRWSFPHGEFLLIRTLAG has an amyloid nucleation score of -0.574 ± 0.3.
AILYDHSYSYWVSFRNVKCK showed an amyloid nucleation score of 0.215 ± 0.65.
For FQDLDLVHRLHSVSVNLETE, the amyloid nucleation score was 0.123 ± 1.
Work on SWLFRYYVERVNDVRG yielded an amyloid nucleation score of 0.191 ± 0.65.
With KNGQYDGTGDNSLLGPDGFI the amyloid nucleation score was 3.44 ± 0.075.
Substance RACADGTSEPNAVALCLNAV has an amyloid nucleation score of 0.832 ± 0.43.
Work on LIYRCN yielded an amyloid nucleation score of -0.673 ± 1.
Work on TGDPTLLMAYSRSYVWRSER yielded an amyloid nucleation score of 1.28 ± 0.3.
IEVGRHRWALWRVAQSRLIG showed an amyloid nucleation score of 0.308 ± 0.25.
PCWLNGWERFHIWRFNGSVR showed an amyloid nucleation score of -0.281 ± 0.37.
Work on CKLTATCQSQMTEIGLGSFA yielded an amyloid nucleation score of 3.62 ± 0.046.
In the case of ASSALHRVMVLAVTFFRHSS, the amyloid nucleation score is reported as 0.839 ± 0.41.
In the case of LYSTRRCHVRELVPLLGARS, the amyloid nucleation score is reported as 0.362 ± 0.25.
FIWTYSYRDVWVLRVAVWLQ gave an amyloid nucleation score of 0.283 ± 0.23.
SSMVQR showed an amyloid nucleation score of -0.917 ± 0.55.
Substance LYFDVTQ has an amyloid nucleation score of -0.611 ± 0.32.
Work on IMLKGDWC yielded an amyloid nucleation score of -0.189 ± 0.47.
In the case of FCGYSAVVSRAGGCTNLSDE, the amyloid nucleation score is reported as “inactive”.
GVWSITNRFQEIVGNCLCVR gave an amyloid nucleation score of 0.576 ± 0.16.
With PSLMHSHLESNNTSA the amyloid nucleation score was -0.21 ± 0.44.
VVSKVLNKYF showed an amyloid nucleation score of 0.189 ± 0.65.
In the case of ITHQRSSACIVGFILRRRCN, the amyloid nucleation score is reported as -0.369 ± 0.54.
MWSVLNHLRSDSDFSNA gave an amyloid nucleation score of 1.13 ± 0.61.
For SYNLETFIFLWKESG, the amyloid nucleation score was “inactive”.
Substance ITCVVLPLSRWDVHFKCSCH has an amyloid nucleation score of 0.096 ± 0.31.
For NNIGS, the amyloid nucleation score was “inactive”.
Work on SLNKNINRYFGFWYPDSPLL yielded an amyloid nucleation score of -1.22 ± 0.78.
TWQIFFGIFGFSFY showed an amyloid nucleation score of 4.18 ± 0.062.
With LYVNLRCRNYYVAVPVGDWD the amyloid nucleation score was 4.9 ± 0.068.
Substance WRLVHCIHTIGYCMPVRLRG has an amyloid nucleation score of 3.25 ± 0.088.
Substance NFLRML has an amyloid nucleation score of -0.139 ± 0.21.
For IVQKFCVASCGLEHYVF, the amyloid nucleation score was 6.07 ± 0.073.
Work on GWLHMYY yielded an amyloid nucleation score of -0.268 ± 0.36.
With FKHLLSMVIVECFIVIVILC the amyloid nucleation score was -0.041 ± 0.5.
Substance GLDCR has an amyloid nucleation score of 0.024 ± 0.44.
Substance DFESGWFSVDFVN has an amyloid nucleation score of -0.853 ± 0.55.
For GGCCSLPLACNKKGCCYWVA, the amyloid nucleation score was 1.84 ± 0.47.
KAVSLPLVGGLC showed an amyloid nucleation score of -0.684 ± 0.34.
With GNQRFVFVLRMGTVGPLHMF the amyloid nucleation score was 0.836 ± 0.55.
FCWSCWLFQDCSYVVIGREV showed an amyloid nucleation score of 8.556 ± 0.048.
RVIARLLMLWFHPPCSSTKR showed an amyloid nucleation score of 6.203 ± 0.058.
For NYKYINVHGGYVSCLKREEE, the amyloid nucleation score was “inactive”.
WNTISRLCDLWLRVAYGSLV showed an amyloid nucleation score of 0.461 ± 0.65.
With VDYYDIQCL the amyloid nucleation score was 0.649 ± 0.36.
VRLRASDKCLNV showed an amyloid nucleation score of 1.59 ± 0.27.
For SMSSNVRTYNQFTHL, the amyloid nucleation score was 0.716 ± 0.53.
